The values below come from publication PMC5686140, “Structural disorder and induced folding within two cereal, ABA stress and ripening (ASR) proteins” (Scientific Reports, 2017).

Usually stoichiometry N stands for a count of units in the complex or per binding partner.

This data set deals with the molecule itself. Nature of the data set: native MS; native ESI-MS, Synapt G2-Si; proteins buffer-exchanged into 250 mM ammonium acetate, pH 8.0, infused at 15 μM; source temperature 30 °C.

B1: alcohol dehydrogenase (enzyme, UniProt P00330 1-348, looked up)
chain: MSIPETQKGVIFYESHGKLEYKDIPVPKPKANELLINVKYSGVCHTDLHAWHGDWPLPVKLPLVGGHEGAGVVVGMGENVKGWKIGDYAGIKWLNGSCMACEYCELGNESNCPHADLSGYTHDGSFQQYATADAVQAAHIPQGTDLAQVAPILCAGITVYKALKSANLMAGHWVAISGAAGGLGSLAVQYAKAMGYRVLGIDGGEGKEELFRSIGGEVFIDFTKEKDIVGAVLKATDGGAHGVINVSVSEAAIEASTRYVRANGTTVLVGMPAGAKCCSDVFNQVVKSISIVGSYVGNRADTREALDFFARGLVKSPIKVVGLSTLPEIYEKMEKGQIVGRYVVDTSK
notes: alcohol dehydrogenase (ADH, a tetrameric protein), control of the native ESI-MS; Species surmised: the tetrameric ADH commonly used as a native MS standard is that of S. cerevisiae; also called ADH
B1: the “stoichiometry N” value was determined as 4.
